Source: article PMC4116228
One block for each substance: values may come before it.

Legend:
Active MMP-2 = experiment: enzyme inhibition (fluorogenic substrate, Ki by the Morrison equation); Active MMP-2 (0.76 nM) with FLAG-TIMP-1 or FLAG-T2G (0.17 to 13.5 nM), 2 h at 27 C; 50 mM Tris-HCl pH 7.5, 150 mM NaCl, 5 mM CaCl2; substrate MCA-Pro-Leu-Gly-Leu-Dpa-Ala-Arg-NH2
[1] = molecular target: Endogenous LRP-1 of mouse cortical neurons (alpha-chain and beta-chain) (mouse (endogenous in primary cortical neurons))
[2] = molecular target: Endogenous LRP-1 of mouse cortical neurons (alpha-chain and beta-chain) (mouse (endogenous in primary cortical neurons)); remark: listed apart in the source
[3] = molecular target: HA-tagged mini LRP-II (LRP-1 mini-receptor with ligand-binding domain II)
[4] = molecular target: HA-tagged mini LRP-IV (LRP-1 mini-receptor with ligand-binding domain IV)
[5] = molecular target: Recombinant human LRP-1 Fc-tagged mini-domain IV (human); experiment: SPR; Fc-DII or Fc-DIV captured by anti-Fc antibody immobilised on a CMD500m chip (around 8 fmol/mm^2); TIMP-1 or EGF 5 to 80 nM injected sequentially (single-cycle kinetics, 2 min at 50 ul/min); 25 C; HBS (50 mM HEPES-NaOH pH 7.4, 150 mM NaCl, 0.005% Tween-20); corrected for Fc-coated flow cell and blank run; 1:1 titration kinetic model; Biacore T200
[6] = molecular target: Recombinant human LRP-1 Fc-tagged mini-domain II (human); experiment: as above

- Ki (Active MMP-2): 18.9 nM
Substance: FLAG-tagged full-length TIMP-1 T2G mutant (from UniProt P01033 24-207) (natural protein)

- Ki (Active MMP-2): 0.09 nM
- growth cone volume of cortical neurons after 30 min with 10 nM TIMP-1; the increase is prevented by RAP or blocking LRP-1 antibodies [1]: 2.8 fold
Substance: FLAG-tagged wild type TIMP-1 (from UniProt P01033 24-207) (natural protein)

- inhibition by 500 nM RAP of the internalisation of fluo-TIMP-1 by cortical neurons (37 C, pronase-resistant fluorescence) [2]: 2 fold
- internalisation of surface-bound fluo-TIMP-1 (10 nM) by DII-overexpressing CHO cells after 2 h at 37 C (pronase-resistant fluorescence); significantly impeded by 500 nM RAP [3]: 50%
- internalisation of surface-bound fluo-TIMP-1 (10 nM) by DIV-overexpressing CHO cells after 2 h at 37 C (pronase-resistant fluorescence); significantly impeded by 500 nM RAP [4]: 50%
Substance: Fluorescent TIMP-1 (eFluor-conjugated recombinant TIMP-1) (from UniProt P01033 24-207) (natural protein)

- Kd [5]: 52.4 nM
- koff [5]: 0.0135 s⁻¹
- kon [5]: 255000 M⁻¹ s⁻¹
- Kd [6]: 11.2 nM
- koff [6]: 0.021 s⁻¹
- kon [6]: 1.87e+06 M⁻¹ s⁻¹
Substance: Human recombinant TIMP-1 (tissue inhibitor of metalloproteinases-1) (from UniProt P01033 24-207) (natural protein)
